# In IntAct's records for PubMed 27456980:
# B1: Lysosomal cobalamin transport escort protein LMBD1 (Homo sapiens), Q9NUN5 (parent)
# chain: MATSGAASAELVIGWCIFGLLLLAILAFCWIYVRKYQSRRESEVVSTITAIFSLAIALITSALLPVDIFLVSYMKNQNGTFKDWANANVSRQIEDTVLYGYYTLYSVILFCVFFWIPFVYFYYEEKDDDDTSKCTQIKTALKYTLGFVVICALLLLVGAFVPLNVPNNKNSTEWEKVKSLFEELGSSHGLAALSFSISSLTLIGMLAAITYTAYGMSALPLNLIKGTRSAAYERLENTEDIEEVEQHIQTIKSKSKDGRPLPARDKRALKQFEERLRTLKKRERHLEFIENSWWTKFCGALRPLKIVWGIFFILVALLFVISLFLSNLDKALHSAGIDSGFIIFGANLSNPLNMLLPLLQTVFPLDYILITIIIMYFIFTSMAGIRNIGIWFFWIRLYKIRRGRTRPQALLFLCMILLLIVLHTSYMIYSLAPQYVMYGSQNYLIETNITSDNHKGNSTLSVPKRCDADAPEDQCTVTRTYLFLHKFWFFSAAYYFGNWAFLGVFLIGLIVSCCKGKKSVIEGVDEDSDISDDEPSVYSA
# partner: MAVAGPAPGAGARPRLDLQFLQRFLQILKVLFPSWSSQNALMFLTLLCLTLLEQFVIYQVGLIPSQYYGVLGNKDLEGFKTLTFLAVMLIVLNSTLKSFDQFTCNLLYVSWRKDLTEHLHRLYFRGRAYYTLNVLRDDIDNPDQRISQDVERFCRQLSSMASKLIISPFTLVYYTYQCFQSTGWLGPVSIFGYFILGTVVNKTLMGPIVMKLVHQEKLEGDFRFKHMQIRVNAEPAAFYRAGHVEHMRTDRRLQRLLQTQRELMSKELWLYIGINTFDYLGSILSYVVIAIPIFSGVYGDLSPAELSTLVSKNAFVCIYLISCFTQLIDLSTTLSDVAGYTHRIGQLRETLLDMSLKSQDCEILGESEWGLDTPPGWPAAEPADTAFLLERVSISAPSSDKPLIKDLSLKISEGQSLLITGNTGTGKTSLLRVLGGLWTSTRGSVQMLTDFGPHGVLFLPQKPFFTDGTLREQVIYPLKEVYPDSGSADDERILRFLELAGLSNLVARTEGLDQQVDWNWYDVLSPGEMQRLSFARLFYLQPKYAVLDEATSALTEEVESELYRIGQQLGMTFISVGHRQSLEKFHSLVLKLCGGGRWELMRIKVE
# Variants of: B1
# Conditions: with abcd4_human ABCD4, O14678
row,effect of a mutation on the interaction,Variant
1,with no effect,MATSGAASAELVIGWCIFGLLLLAILAFCWIYVRKYQSRRESEVVSTITAIFSLAIALITSALLPVDIFLVSYMKNQNGTFKDWANANVSRQIEDTVLYGYYTLYSVILFCVFFWIPFVYFYYEEKDDDDTSKCTQIKTALKYTLGFVVICALLLLVGAFVPLNVPNNKNSTEWEKVKSLFEELGSSHGLAALSFSISSLTLIGMLAAITYTAYGMSALPLNLIKGTRSAAAAAAENTEDIEEVEQHIQTIKSKSKDGRPLPARDKRALKQFEERLRTLKKRERHLEFIENSWWTKFCGALRPLKIVWGIFFILVALLFVISLFLSNLDKALHSAGIDSGFIIFGANLSNPLNMLLPLLQTVFPLDYILITIIIMYFIFTSMAGIRNIGIWFFWIRLYKIRRGRTRPQALLFLCMILLLIVLHTSYMIYSLAPQYVMYGSQNYLIETNITSDNHKGNSTLSVPKRCDADAPEDQCTVTRTYLFLHKFWFFSAAYYFGNWAFLGVFLIGLIVSCCKGKKSVIEGVDEDSDISDDEPSVYSA [Y232A;E233A;R234A;L235A]
2,with no effect,MATSGAASAELVIGWCIFGLLLLAILAFCWIYVRKYQSRRESEVVSTITAIFSLAIALITSALLPVDIFLVSYMKNQNGTFKDWANANVSRQIEDTVLYGYYTLYSVILFCVFFWIPFVYFYYEEKDDDDTSKCTQIKTALKYTLGFVVICALLLLVGAFVPLNVPNNKNSTEWEKVKSLFEELGSSHGLAALSFSISSLTLIGMLAAITYTAYGMSALPLNLIKGTRSAAYERLENTEDIEEVEQHIQTIKSKSKDGRPLPARDKRALKQFEERLRTLKKRERHLEFIENSWAAAACGALRPLKIVWGIFFILVALLFVISLFLSNLDKALHSAGIDSGFIIFGANLSNPLNMLLPLLQTVFPLDYILITIIIMYFIFTSMAGIRNIGIWFFWIRLYKIRRGRTRPQALLFLCMILLLIVLHTSYMIYSLAPQYVMYGSQNYLIETNITSDNHKGNSTLSVPKRCDADAPEDQCTVTRTYLFLHKFWFFSAAYYFGNWAFLGVFLIGLIVSCCKGKKSVIEGVDEDSDISDDEPSVYSA [W294A;T295A;K296A;F297A]
